Source: paper PMC8041770, “An engineered ligand trap inhibits leukemia inhibitory factor as pancreatic cancer treatment strategy” (Communications Biology, 2021)

Target: yeast-displayed mouse LIF (mLIF, Ser24 to Phe203) (mouse, UniProt P09056 24-203)
Assay: flow cytometry on cells; LIF displayed on yeast (EBY100), soluble Fc fusion titrated in PBS with 1 mg/ml BSA, Fc detected with fluorescent secondary antibody; apparent Kd by non-linear regression
Settings: one partner purified

- Kd: 0.16 ± 0.02 nM
B1: mLIFR-Fc (mouse LIFR CBM I–Ig-like–CBM II fused to an antibody Fc domain) (Fc fusion)
chain: LKRGVQDLKCTTNNMRVWDCTWPAPLGVSPGTVKDICIKDRFHSCHPLETTNVKIPALSPGDHEVTINYLNGFQSKFTLNEKDVSLIPETPEILDLSADFFTSSLLLKWNDRGSALPHPSNATWEIKVLQNPRTEPVALVLLNTMLSGKDTVQHWNWTSDLPLQCATHSVSIRWHIDSPHFSGYKEWSDWSPLKNISWIRNTETNVFPQDKVVLAGSNMTICCMSPTKVLSGQIGNTLRPLIHLYGQTVAIHILNIPVSENSGTNIIFITDDDVYGTVVFAGYPPDVPQKLSCETHDLKEIICSWNPGRITGLVGPRNTEYTLFESISGKSAVFHRIEGLTNETYRLGVQMHPGQEIHNFTLTGRNPLGQAQSAVVINVTERVAPHDPTSLKVKDINSTVVTFSWYLPGNFTKINLLCQIEICKANSKKEVRNATIRGAEDSTYHVAVDKLNPYTAYTFRVRCSSKTFWKWSRWSDEKRHLTTEAT
notes: signal peptide in the construct; mouse LIF receptor (mLIFR), three most N-terminal extracellular domains CBM I–Ig-like–CBM II, Met1 to Thr529; also called soluble mLIFR-Fc; mLIFR mIgG2a Fc; source: Expi293F, transfected (pAdd2), purified from medium (Protein-A Sepharose)
